# Laboratory results as given in US20230250176A1 (DRAGONFLY THERAPEUTICS, published 2023).
# Legend:
# human NKG2D on cells [1] = molecular target: T1, human NKG2D on cells (human, UniProt P26718 1-216); experiment: cell-based or functional assay
# T1 sequence (looked up): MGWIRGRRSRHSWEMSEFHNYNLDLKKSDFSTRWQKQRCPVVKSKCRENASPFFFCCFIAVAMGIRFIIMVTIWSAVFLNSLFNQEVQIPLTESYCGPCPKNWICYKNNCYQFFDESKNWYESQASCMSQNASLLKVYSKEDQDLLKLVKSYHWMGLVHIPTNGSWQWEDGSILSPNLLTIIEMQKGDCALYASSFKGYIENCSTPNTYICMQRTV
# [2] = molecular target: T2, human EGFR (wild type) on cells (human, UniProt P00533 25-1210); experiment: flow cytometry, NCI-H2172 cells
# T2 construct: whole, on cells; also called EGFRwt
# [3] = molecular target: T2, human EGFR (wild type) on cells; experiment: flow cytometry, HT29 cells
# [4] = molecular target: T3, purified recombinant human NKG2D (human, UniProt P26718 78-216, limits assumed); experiment: SPR
# T3 sequence (looked up): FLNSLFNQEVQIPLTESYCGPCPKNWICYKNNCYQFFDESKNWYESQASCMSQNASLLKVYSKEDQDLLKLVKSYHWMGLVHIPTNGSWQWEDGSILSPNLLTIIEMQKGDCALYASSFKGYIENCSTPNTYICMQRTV
# [5] = molecular target: T4, recombinant cynomolgus monkey NKG2D (cynomolgus monkey, UniProt P61252 78-216, limits assumed); experiment: SPR
# T4 sequence (looked up): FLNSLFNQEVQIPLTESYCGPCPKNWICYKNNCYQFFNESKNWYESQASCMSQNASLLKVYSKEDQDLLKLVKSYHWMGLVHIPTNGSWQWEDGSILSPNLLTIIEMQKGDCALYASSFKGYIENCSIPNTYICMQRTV
# recombinant mouse NKG2D = molecular target: T5, recombinant mouse NKG2D (mouse, UniProt O54709 94-232, limits assumed); experiment: SPR
# T5 sequence (looked up): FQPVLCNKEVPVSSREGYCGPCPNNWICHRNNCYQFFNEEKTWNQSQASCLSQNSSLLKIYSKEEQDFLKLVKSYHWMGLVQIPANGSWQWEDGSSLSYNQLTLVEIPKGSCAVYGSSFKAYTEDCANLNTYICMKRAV
# recombinant rat NKG2D = molecular target: T6, recombinant rat NKG2D (rat, UniProt O70215 75-215, limits assumed); experiment: SPR
# T6 sequence (looked up): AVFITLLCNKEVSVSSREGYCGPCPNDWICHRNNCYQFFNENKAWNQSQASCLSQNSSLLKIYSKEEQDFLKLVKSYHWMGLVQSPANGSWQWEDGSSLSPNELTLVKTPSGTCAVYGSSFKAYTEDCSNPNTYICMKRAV
# [6] = molecular target: T2, human EGFR (wild type) on cells; experiment: cell-based or functional assay
# [7] = molecular target: T7, human EGFR T790M, L858R on NCI-H1975 cells (human, UniProt P00533 25-1210); experiment: cell-based or functional assay
# [8] = molecular target: T8, purified recombinant human FcγRIIa H131 (human, UniProt P12318 36-218, limits assumed); experiment: SPR (Biacore 8K), 25 C
# T8 sequence (looked up): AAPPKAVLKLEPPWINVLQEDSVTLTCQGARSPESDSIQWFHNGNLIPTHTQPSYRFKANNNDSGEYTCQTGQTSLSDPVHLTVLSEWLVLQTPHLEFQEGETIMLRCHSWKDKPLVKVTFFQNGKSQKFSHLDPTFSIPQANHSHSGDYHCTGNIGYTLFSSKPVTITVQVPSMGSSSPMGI
# [9] = molecular target: purified recombinant human FcγRI (human, UniProt P12314 16-288, limits assumed); experiment: SPR (Biacore 8K), 25 C
# [10] = molecular target: T9, purified recombinant human FcγRIIIa V158 (human, UniProt P08637 17-208); experiment: SPR (Biacore 8K), 25 C
# T9 construct: also called human CD16 V158; CD16a
# human NKG2D on cells [11] = molecular target: T1, human NKG2D on cells; experiment: flow cytometry with AF647-conjugated test article on KHYG-1 parental cells (NKG2D, no CD16a); KHYG-1 parental cell line (NKG2D+, CD16a-), titrated from 800 nM
# [12] = molecular target: T2, human EGFR (wild type) on cells; experiment: cell-based or functional assay; remark: listed apart in the source
# [13] = molecular target: T7, human EGFR T790M, L858R on NCI-H1975 …; experiment: cell-based or functional assay; remark: listed apart in the source
# [14] = molecular target: T2, human EGFR (wild type) on cells; experiment: cell-based or functional assay; remark: listed apart in the source
# [15] = molecular target: T7, human EGFR T790M, L858R on NCI-H1975 …; experiment: cell-based or functional assay; remark: listed apart in the source
# [16] = molecular target: human EGFR L747-E749del, A750P on HCC4006 cells (human, UniProt P00533 25-1210); experiment: cell-based or functional assay
# [17] = molecular target: T2, human EGFR (wild type) on cells; experiment: flow cytometry, FaDu cells
# [18] = molecular target: T2, human EGFR (wild type) on cells; experiment: flow cytometry, HCT116 cells
binder,measurement,setting,value
"EGFR-TriNKET (bispecific antibody, human IgG1, kappa, also called EGFR-TriNKET-3) DIQMTQSPSSLSASVGDRVTITCQASQDISNYLNWYQQKPGKAPKLLIYDASNLETGVPSRFSGSGSGTDFTFTISSLQPEDIATYYCQHFRHLPLAFGCGTKVEIKGGGGSGGGGSGGGGSGGGGSQVQLQESGPGLVKPSETLSLTCTVSGGSVSSGDYYWTWIRQSPGKCLEWIGHIYYSGNTNYNPRLKSRLTISIDTSKTQFSLKLSSVTAADTAIYYCVRDRVTGAFDIWGQGTMVTVSSGSDKTHTCPPCPAPELLGGPSVFLFPPKPKDTLMISRTPEVTCVVVDVSHEDPEVKFNWYVDGVEVHNAKTKPREEQYNSTYRVVSVLTVLHQDWLNGKEYKCKVSNKALPAPIEKTISKAKGQPREPRVYTLPPCRDELTKNQVSLTCLVKGFYPSDIAVEWESNGQPENNYKTTPPVLVSDGSFTLYSKLTVDKSRWQQGNVFSCSVMHEALHNHYTQKSLSLSPG heavy: EVQLVESGGGLVKPGGSLRLSCAASGFTFSSYSMNWVRQAPGKGLEWVSSISSSSSYIYYADSVKGRFTISRDNAKNSLYLQMNSLRAEDTAVYYCARGAPIGAAAGWFDPWGQGTLVTVSSASTKGPSVFPLAPSSKSTSGGTAALGCLVKDYFPEPVTVSWNSGALTSGVHTFPAVLQSSGLYSLSSVVTVPSSSLGTQTYICNVNHKPSNTKVDKKVEPKSCDKTHTCPPCPAPELLGGPSVFLFPPKPKDTLMISRTPEVTCVVVDVSHEDPEVKFNWYVDGVEVHNAKTKPREEQYNSTYRVVSVLTVLHQDWLNGKEYKCKVSNKALPAPIEKTISKAKGQPREPQVCTLPPSRDELTENQVSLTCLVKGFYPSDIAVEWESNGQPENNYKTTPPVLDSDGSFFLYSWLTVDKSRWQQGNVFSCSVMHEALHNHYTQKSLSLSPG light: DIQMTQSPSSVSASVGDRVTITCRASQGISSWLAWYQQKPGKAPKLLIYAASSLQSGVPSRFSGSGSGTDFTLTISSLQPEDFATYYCQQGVSFPRTFGGGTKVEIKRTVAAPSVFIFPPSDEQLKSGTASVVCLLNNFYPREAKVQWKVDNALQSGNSQESVTEQDSKDSTYSLSSTLTLSKADYEKHKVYACEVTHQGLSSPVTKSFNRGEC","EC50, CD8+ T-cell lysis of 786-O cells",human NKG2D on cells [1],0.43 nM
same,"EC50, CD8+ T-cell lysis of NCI-H1975 cells",human NKG2D on cells [1],0.17 nM
same,EC50,[2],1 nM
same,Max FOB,[2],140 fold over background
same,EC50,[3],1.3 nM
same,Max FOB,[3],340 fold over background
same,Kd,[4],482 nM
same,Kd,[5],562 nM
same,binding result,recombinant mouse NKG2D,no binding
same,binding result,recombinant rat NKG2D,no binding
same,"EC50, long-term NK cell-mediated cytotoxicity (IncuCyte, 72 h, 50% human serum), KYSE-30, NK CD16a F/F (n = 2)",[6],0.015 nM
same,"EC50, long-term NK cell-mediated cytotoxicity, 786-O, NK CD16a F/F (n = 2)",[6],0.24 nM
same,"EC50, long-term NK cell-mediated cytotoxicity, 786-O, NK CD16a V/F (n = 1)",[6],0.15 nM
same,"EC50, long-term NK cell-mediated cytotoxicity, HCT116, NK CD16a F/F (n = 2)",[6],0.28 nM
same,"EC50, long-term NK cell-mediated cytotoxicity, HCT116, NK CD16a V/V (n = 1)",[6],0.21 nM
same,"EC50, long-term NK cell-mediated cytotoxicity, KYSE-30, NK CD16a V/F (n = 1)",[6],0.013 nM
same,"EC50, long-term NK cell-mediated cytotoxicity, NCI-H1975, NK CD16a F/F (n = 2)",[7],0.23 nM
same,"EC50, long-term NK cell-mediated cytotoxicity, NCI-H1975, NK CD16a V/F (n = 1)",[7],0.09 nM
same,Kd,[8],1000 nM
same,Kd,[9],5.6 nM
same,koff,[9],0.00024 s⁻¹
same,kon,[9],42000 M⁻¹ s⁻¹
same,Kd,[10],53.8 nM
same,koff,[10],0.011 s⁻¹
same,kon,[10],200000 M⁻¹ s⁻¹
same,EC50,human NKG2D on cells [11],> 600 nM
same,"EC50, NK cell degranulation and cytokine production, human PBMCs with 786-O",[12],0.089 nM
same,"EC50, NK cell degranulation and cytokine production, human PBMCs with NCI-H1975",[13],0.067 nM
same,"EC50, short-term NK cell-mediated cytotoxicity (DELFIA), 786-O",[14],0.048 nM
same,"EC50, short-term NK cell-mediated cytotoxicity (DELFIA), BT474",[14],0.29 nM
same,"EC50, short-term NK cell-mediated cytotoxicity (DELFIA), Detroit 562",[14],0.058 nM
same,"EC50, short-term NK cell-mediated cytotoxicity (DELFIA), FaDu",[14],0.011 nM
same,"EC50, short-term NK cell-mediated cytotoxicity (DELFIA), HCT116",[14],0.054 nM
same,"EC50, short-term NK cell-mediated cytotoxicity (DELFIA), HT29",[14],0.019 nM
same,"EC50, short-term NK cell-mediated cytotoxicity (DELFIA), KYSE-30",[14],0.0053 nM
same,"EC50, short-term NK cell-mediated cytotoxicity (DELFIA), NCI-H292",[14],0.0088 nM
same,"EC50, short-term NK cell-mediated cytotoxicity (DELFIA), NCI-H1703",[14],0.022 nM
same,"EC50, short-term NK cell-mediated cytotoxicity (DELFIA), NCI-H2172",[14],0.079 nM
same,"EC50, short-term NK cell-mediated cytotoxicity (DELFIA), NCI-H1975",[15],0.1 nM
same,"EC50, short-term NK cell-mediated cytotoxicity (DELFIA), HCC4006",[16],0.092 nM
same,EC50,[17],11 nM
same,Max FOB,[17],1200 fold over background
same,EC50,[18],1.4 nM
same,Max FOB,[18],300 fold over background
